{
  "source": "patent US7070974B1",
  "about": "“Metalloproteases of the neprilysin family” (Universite de Montreal, priority 1999, dated 2006)",
  "type_in_all_cases": "biochemical",
  "key": {"[1]": {"target": "T1, sNEP (engineered soluble form of NEP) (Oryctolagus cuniculus, UniProt P08049)", "T1 construct": "Fusion of a cleavable signal peptide to the ectodomain of neutral endopeptidase; cleavable signal peptide of proopiomelanocortin (replaces cytosolic and transmembrane domains) (N, cleaved yes); made in house; host or cells: LLC-PK1 cells transfected with pRcCMV-sNEP; concentrated culture medium", "T1 sequence (P08049 52-750 limits assumed)": "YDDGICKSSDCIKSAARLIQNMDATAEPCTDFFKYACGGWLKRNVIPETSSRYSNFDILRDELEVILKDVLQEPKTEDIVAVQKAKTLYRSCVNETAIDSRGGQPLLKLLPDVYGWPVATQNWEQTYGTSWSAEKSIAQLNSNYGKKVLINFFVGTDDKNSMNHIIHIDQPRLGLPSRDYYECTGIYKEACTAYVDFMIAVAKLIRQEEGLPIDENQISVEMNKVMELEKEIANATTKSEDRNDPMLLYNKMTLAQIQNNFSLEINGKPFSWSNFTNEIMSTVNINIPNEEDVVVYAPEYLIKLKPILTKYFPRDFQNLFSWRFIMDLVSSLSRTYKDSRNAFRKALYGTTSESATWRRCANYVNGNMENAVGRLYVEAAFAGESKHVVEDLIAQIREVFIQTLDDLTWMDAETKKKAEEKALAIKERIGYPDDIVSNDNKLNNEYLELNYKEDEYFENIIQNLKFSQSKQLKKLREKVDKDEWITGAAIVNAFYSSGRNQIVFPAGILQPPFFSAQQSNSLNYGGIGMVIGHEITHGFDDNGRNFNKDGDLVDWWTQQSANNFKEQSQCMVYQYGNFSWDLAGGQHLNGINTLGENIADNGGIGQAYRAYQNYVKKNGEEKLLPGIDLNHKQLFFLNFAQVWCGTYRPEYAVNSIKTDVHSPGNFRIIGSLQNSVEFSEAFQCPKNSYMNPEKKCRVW", "assay": "sNEP enzymatic activity assay with (Tyrosyl-[3,5-3H])(D-Ala2)-Leu5-enkephalin as substrate", "settings": "substrate of sNEP; isotope-dilution method"}, "NL1": {"target": "T2, NL1 (Mus musculus, UniProt Q9JLI3)", "T2 sequence (Q9JLI3 63-765 limits assumed)": "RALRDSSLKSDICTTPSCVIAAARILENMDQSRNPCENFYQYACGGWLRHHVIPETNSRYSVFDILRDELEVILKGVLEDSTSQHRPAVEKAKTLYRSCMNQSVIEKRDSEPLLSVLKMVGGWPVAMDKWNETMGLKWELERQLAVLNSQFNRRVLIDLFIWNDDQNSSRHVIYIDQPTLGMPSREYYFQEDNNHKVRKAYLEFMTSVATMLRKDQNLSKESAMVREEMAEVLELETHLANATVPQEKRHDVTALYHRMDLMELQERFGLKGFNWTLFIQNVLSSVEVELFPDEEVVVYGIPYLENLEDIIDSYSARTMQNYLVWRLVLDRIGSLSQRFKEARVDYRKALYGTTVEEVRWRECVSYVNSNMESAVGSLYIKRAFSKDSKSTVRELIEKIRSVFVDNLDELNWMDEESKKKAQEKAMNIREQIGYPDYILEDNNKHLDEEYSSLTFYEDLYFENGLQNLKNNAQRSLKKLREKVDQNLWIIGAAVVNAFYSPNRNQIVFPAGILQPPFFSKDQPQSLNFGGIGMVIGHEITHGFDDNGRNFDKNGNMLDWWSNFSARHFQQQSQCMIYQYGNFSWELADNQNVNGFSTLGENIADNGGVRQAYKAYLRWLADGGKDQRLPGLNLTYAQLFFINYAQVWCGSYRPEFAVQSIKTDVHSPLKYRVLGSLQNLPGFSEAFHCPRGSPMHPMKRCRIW", "assay": "NL-1 enzymatic activity assay with (Tyrosyl-[3,5-3H])(D-Ala2)-Leu5-enkephalin as substrate", "parameters": "The soluble form of NL-1 was assayed for activity; made in house; host or cells: CHO cells (section 1, pcDNA3-RSV) and HEK 293 cells (section 2, pCDNA3/RSV)", "experimental": "(§1) Extracts of cellular proteins and culture media were assayed for enzymatic activity. Two tests were performed. The first used [^3H]-Tyr-(D)Ala2-Leu-enkephalin as substrate and was performed according to Lemay et al., (1989). The second used bradykinin as substrate and was performed as described by Raut et al. (1999).\nNL1 activity was monitored and compared to sNEP activity using (Tyrosyl-[3,5-^3H])(D-Ala2)-Leu5-enkephalin (50 Ci/mmol) (Research Products International Inc.), as already described (Dion 1995; Devault 1988). Km values were determined by the isotope-dilution method."}, "soluble form of NL-3": {"target": "T3, soluble form of NL-3 (Homo sapiens, UniProt O95672)", "T3 construct": "the ectodomain of NL-3 (from the third cysteine to the end) was spliced to NL-1 amino-terminal domain; mouse NL-1 amino-terminal domain (initiator methionine to the furin site) (N); made in house; host or cells: COS-1 and HEK 293 cells transfected with pRcCMV; spent culture medium", "T3 sequence (O95672 83-775 limits assumed)": "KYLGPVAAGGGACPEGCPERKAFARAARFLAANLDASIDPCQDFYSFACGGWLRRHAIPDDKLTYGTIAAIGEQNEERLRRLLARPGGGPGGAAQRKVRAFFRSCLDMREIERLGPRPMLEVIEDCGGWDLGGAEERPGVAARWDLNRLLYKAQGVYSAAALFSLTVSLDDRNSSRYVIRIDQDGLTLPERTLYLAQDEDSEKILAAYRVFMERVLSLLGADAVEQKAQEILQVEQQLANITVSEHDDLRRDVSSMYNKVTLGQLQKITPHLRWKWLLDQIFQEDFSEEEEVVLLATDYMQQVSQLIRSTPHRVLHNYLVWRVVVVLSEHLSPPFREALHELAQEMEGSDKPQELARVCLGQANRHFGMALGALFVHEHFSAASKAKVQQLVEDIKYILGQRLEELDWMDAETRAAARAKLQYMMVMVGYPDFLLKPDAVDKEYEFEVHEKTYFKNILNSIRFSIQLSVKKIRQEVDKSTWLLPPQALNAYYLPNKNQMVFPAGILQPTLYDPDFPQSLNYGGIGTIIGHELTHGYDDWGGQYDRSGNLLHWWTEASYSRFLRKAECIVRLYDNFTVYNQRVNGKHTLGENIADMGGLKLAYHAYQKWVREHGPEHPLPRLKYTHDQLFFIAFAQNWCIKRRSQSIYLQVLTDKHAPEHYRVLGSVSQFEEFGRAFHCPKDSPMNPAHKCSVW", "assay": "Soluble NL-3 activity assay with [3H]-Tyr-(D)Ala2-Leu-enkephalin as substrate", "settings": "soluble NL-3 from the NL-1 amino-terminal fusion", "experimental": "as §1\nThe observation that NL-1 ectodomain was secreted, possibly through cleavage of the transmembrane segment by furin, raised the possibility to promote secretion of exogenous proteins that could be spliced to NL-1 amino-terminal domain (from initiator methionine to the furin site). To test this hypothesis, the ectodomain of NL-3 (from the third cysteine to the end) was spliced to NL-1 amino-terminal domain using a PCR strategy and the recombinant DNA cloned in expression vector pRcCMV. The fusion protein was expressed by transfection of the vector in COS-1 and HEK 293 cells. The culture media of transfected cells was analyzed by immunoblotting using the mouse antiserum against NL-3."}},
  "note": "Starred links: 1 amine or outer side, 2 acyl side, 3 side chain; linkers in the order of their positions; H or OH if unused. Non-standard residues stand in square brackets, D forms with d. No end group written: not given here. Tyr(3,5-3H) = [3H]c1cc(C[C@H](N[*:1])C(=O)[*:2])cc([3H])c1O[*:3]",
  "data": [
    {"substance": "(Tyrosyl-[3,5-^3H])(D-Ala2)-Leu5-enkephalin ([Tyr(3,5-3H)][dA]GFL) [D-Ala2-Leu5-enkephalin]", "values": [
      {"measurement": "Km", "setting": "[1]", "value": 73, "unit": "µM"},
      {"measurement": "Km value of NL1 relative to NEP", "setting": "NL1; fold lower for NL1 than NEP", "value": "4- to 5 fold"},
      {"measurement": "Km", "setting": "NL1; substrate of soluble NL-1, isotope-dilution method", "value": 18, "unit": "µM"},
      {"measurement": "activity of soluble NL-3 on the substrate", "setting": "soluble form of NL-3", "value": "No activity"}
    ]}
  ]
}
